Test results as given in publication PMC5618010 (Viruses, 2017).
Residue numbers refer to the chain shown, from its start. In names and notes the source's numbering stands. No end group written: not given here.

B1: R28A-HD5: HD5 mutant R28A, chemically synthesized; cationicity (peptide, UniProt Q01523 20-94, looked up, variant R28A)
Defensin alpha 5: ESLQERADEATTQKQSGEDNQDLAISFAGNGLSALRTSGSQARATCYCRTGRCATRESLSGVCEISGRLYALCCR
modifications: Defensin-5
B2: S15A-HD5: HD5 mutant S15A, chemically synthesized (peptide, UniProt Q01523 20-94, looked up, variant S15A)
Defensin alpha 5: B1 Defensin alpha 5 with S58A, A71R
modifications: Defensin-5
B3: Y4A-HD5: HD5 mutant Y4A, chemically synthesized; hydrophobicity (peptide, UniProt Q01523 20-94, looked up, variant Y4A)
Defensin alpha 5: B1 Defensin alpha 5 with Y47A, A71R
modifications: Defensin-5
B4: Y27A-HD5: HD5 mutant Y27A, chemically synthesized; hydrophobicity (peptide, UniProt Q01523 20-94, looked up, variant Y27A)
Defensin alpha 5: B1 Defensin alpha 5 with Y70A, A71R
modifications: Defensin-5
B5: L16A-HD5: HD5 mutant L16A, chemically synthesized; hydrophobicity (peptide, UniProt Q01523 20-94, looked up, variant L16A)
Defensin alpha 5: B1 Defensin alpha 5 with L59A, A71R
modifications: Defensin-5
B6: human α-defensin 5 (peptide, UniProt Q01523 20-94, looked up)
Defensin alpha 5: B1 Defensin alpha 5 with A71R
modifications: Defensin-5

Assays:
Format in all cases: cell-based
[1] = test system: HIV-1JR-FL
[2] = test system: HIV-1JR-FL; remark: listed apart in the source
[3] = test system: HIV-1JR-FL; remark: listed apart in the source

Row | Molecule | Attachment 10 μg/mL: relative percent of HIV attachment compared to WT HD6 [1] | Attachment 30 μg/mL: relative percent of HIV attachment compared to WT HD6 [1] | Infectivity 10 μg/mL: relative percent of HIV infectivity compared to WT HD6 [2] | Infectivity 30 μg/mL: relative percent of HIV infectivity compared to WT HD6 [2] | Late RT production compared to WT HD6 [3] | Attachment 10 μg/mL: relative percent of HIV attachment compared to WT HD5 [1] | Attachment 30 μg/mL: relative percent of HIV attachment compared to WT HD5 [1] | Reduction of ability to promote HIV attachment compared to WT HD5 [1] | Infectivity 10 μg/mL: relative percent of HIV infectivity compared to WT HD5 [2] | Infectivity 30μg/mL: relative percent of HIV infectivity compared to WT HD5 [2] | Loss of HIV attachment-enhancing and infection-enhancing activities [2]
1 | Ac-HD6: HD6 acetylated at the N-terminus (Ac-AFTCHCRRSCYSTEYSYGTCTVMGINHRFCCL; ends and bridges not checked; UniProt Q01524 69-100, looked up) | 57 ± 14% | 87 ± 19% | 58 ± 24% | 175 ± 43% | comparable | – | – | – | – | – | –
2 | B1 | – | – | – | – | – | 54 ± 17% | 59 ± 19% | 41% | 66 ± 5% | 52 ± 3% | about 50%
3 | B2 | – | – | – | – | – | 118± 9% | 95 ± 16% | – | 166 ± 30% | 81 ± 11% | –
4 | B3 | – | – | – | – | – | 134 ± 26% | 106 ± 3% | – | 136 ± 42% | 75 ± 14% | –
5 | B4 | – | – | – | – | – | 19 ± 11% | 18 ± 9% | – | 28 ± 18% | 29 ± 9% | –
6 | B5 | – | – | – | – | – | 17 ± 5% | 27 ± 7% | – | 10 ± 3% | 30 ± 3% | –
7 | B6 | – | – | – | – | – | 100 ± 0% | 100 ± 0% | – | 100 ± 0% | 100 ± 0% | –
